The supplement of paper PMC12042874
± gives the uncertainty stated by the source.

Experiment: amyloid nucleation score (Sup35N fusion, yeast selection) (log enrichment); library NNK1; higher = more nucleation; inactive = no reads after selection
Summary of the method: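 Growth for 7 days at 30°C on medium lacking adenine and uracil followed a 24-hour induction with 100 μM copper sulfate of psi-negative yeast expressing peptides of 20 random codons fused to Sup35N. Input and output plasmid inserts were sequenced with Illumina, and sequences with under 100 input reads were excluded. Nucleation score is the DiMSum log enrichment of output over input reads, centred on the mode score of non-aggregating sequences.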

Substance: KVCFPY
- amyloid nucleation score: -1.03 ± 0.4

Substance: LGVRINGTNVLDFF
- amyloid nucleation score: 0.044 ± 0.27

Substance: YSNWGHVSRWFLRFIVVFFI
- amyloid nucleation score: 0.459 ± 0.64

Substance: GGLKQFTGSRTHGLWSNGQM
- amyloid nucleation score: -0.337 ± 0.89

Substance: FWVKVLY
- amyloid nucleation score: -0.654 ± 0.37

Substance: VFVSIMWQY
- amyloid nucleation score: 1.82 ± 0.51

Substance: CSEISCPLTKHRCGTLVRVL
- amyloid nucleation score: -0.761 ± 1.2

Substance: NWMTLRWVLGGLSNGFDGSH
- amyloid nucleation score: 4.41 ± 0.073

Substance: SADSGSQSEEQSKVMRMVYG
- amyloid nucleation score: -1.64 ± 0.83

Substance: MIVGGNLEEIVNHCYFCVER
- amyloid nucleation score: 0.511 ± 0.24

Substance: ILERSHRVGYCAHLLCISVN
- amyloid nucleation score: 0.171 ± 0.63

Substance: RCTSSPFVVL
- amyloid nucleation score: 0.668 ± 0.82

Substance: SKGPWGLY
- amyloid nucleation score: -0.517 ± 1.1

Substance: GTGLVAMVAT
- amyloid nucleation score: -1.24 ± 1.1

Substance: SNHQLEYRL
- amyloid nucleation score: 1.52 ± 0.55

Substance: MMLSVCISKLTFLVIRDLLV
- amyloid nucleation score: 0.459 ± 0.23

Substance: LNTAQI
- amyloid nucleation score: 0.512 ± 0.29

Substance: SMTKSIGMRSYGMVAHGAGS
- amyloid nucleation score: 0.722 ± 0.45

Substance: ITSIANFLWIL
- amyloid nucleation score: 3.03 ± 0.069

Substance: ILKATHGSHDIYPAWNGRIS
- amyloid nucleation score: 3.2 ± 0.12

Substance: ICVLCC
- amyloid nucleation score: 1.15 ± 0.62

Substance: KHICTAFRSVEFAEGIR
- amyloid nucleation score: 0.658 ± 0.46

Substance: DAWEDGSKMYESLGV
- amyloid nucleation score: -1.01 ± 0.56

Substance: DDVYSRYVNEGLGWCFIVYL
- amyloid nucleation score: inactive

Substance: RLICGPWNYCCQYKYNHLVL
- amyloid nucleation score: 4 ± 0.12

Substance: NLVALNLSNTFPDDV
- amyloid nucleation score: 0.04 ± 0.82

Substance: CNITWSFSDRLWY
- amyloid nucleation score: 0.476 ± 0.27

Substance: TCTYVYFLCSSIYARNITFM
- amyloid nucleation score: 8.838 ± 0.057

Substance: CMHFVYNIKVRIIPDEYDHS
- amyloid nucleation score: 4.6 ± 0.091

Substance: AGVNWASHWHMDHMSGFVEW
- amyloid nucleation score: -0.684 ± 0.3

Substance: DCGDSKRYVRITMFYFNRII
- amyloid nucleation score: -0.262 ± 0.34

Substance: FVRCSAKMDLWSVLTVCSFC
- amyloid nucleation score: 3.2 ± 0.12

Substance: YGFCGLMHSNSIHYSNMQSR
- amyloid nucleation score: 0.685 ± 0.48

Substance: QLSDVSRWSFIWLKGGQRST
- amyloid nucleation score: 0.334 ± 0.84

Substance: PAQEA
- amyloid nucleation score: 0.126 ± 0.45

Substance: WCWNAAQLSMVYSDMNFVAV
- amyloid nucleation score: 0.675 ± 1

Substance: PSSKCGCWTTPEMIEGYRNL
- amyloid nucleation score: -0.119 ± 0.51

Substance: ARRLFAAMLLRDWVPLTSQM
- amyloid nucleation score: 1.27 ± 0.66

Substance: MVSLDWTSQLGR
- amyloid nucleation score: 2.18 ± 0.54

Substance: NFPLVSFFTNCSNKE
- amyloid nucleation score: inactive

Substance: DLNNGDAKSDRFYGSFLHSW
- amyloid nucleation score: -0.612 ± 0.32

Substance: GLNYLNFTREYYHLTWVVVP
- amyloid nucleation score: 4.47 ± 0.091

Substance: YNSETSPVCYELTCESFCIV
- amyloid nucleation score: -1.23 ± 2.4

Substance: LYLHNHGVWAYFKWCWGVRG
- amyloid nucleation score: -0.257 ± 0.53

Substance: QTRRYTVNCLL
- amyloid nucleation score: inactive

Substance: FGFLLHGDDDQEGIVTGRGG
- amyloid nucleation score: 0.384 ± 0.76

Substance: NLEAIRQMQEKIMRRTWLLY
- amyloid nucleation score: 3.03 ± 0.13

Substance: GATVNSVWSVPKQVTWSGMC
- amyloid nucleation score: -0.138 ± 0.32

Substance: DFMALI
- amyloid nucleation score: -0.013 ± 0.25

Substance: YLDWTVSALNWAMRMGSTVR
- amyloid nucleation score: 0.381 ± 0.31

Substance: VWKDS
- amyloid nucleation score: -0.285 ± 0.65

Substance: RKSAQYHG
- amyloid nucleation score: inactive

Substance: GYMCLSL
- amyloid nucleation score: 0.395 ± 0.29

Substance: MVFFTCSEMDVYMWRGYFNY
- amyloid nucleation score: -0.727 ± 0.28

Substance: FFTKAGRPFGLTRDISVL
- amyloid nucleation score: -0.23 ± 0.87

Substance: YIAQSFELKA
- amyloid nucleation score: 0.23 ± 0.53

Substance: CSSHDQFSAR
- amyloid nucleation score: -0.214 ± 0.77

Substance: KGTCCPPLPVILDIMEDSSR
- amyloid nucleation score: -0.227 ± 0.38

Substance: MEKLGAPYRFREPGMFVRFF
- amyloid nucleation score: -1.1 ± 0.62

Substance: SDYGLGMSDWGDFMDRVGLR
- amyloid nucleation score: 0.527 ± 1.2

Substance: WCRIVG
- amyloid nucleation score: 0.227 ± 0.57

Substance: TWSTGAMPML
- amyloid nucleation score: -0.344 ± 0.84

Substance: DYRYTNCCWQSPKRRGWQSY
- amyloid nucleation score: 0.967 ± 0.59

Substance: FGMVGTCYRMDRWDVIAVSV
- amyloid nucleation score: 0.44 ± 0.41

Substance: RPPCCKWRDRRCTWGIS
- amyloid nucleation score: 0.017 ± 0.51

Substance: VFGIRFLI
- amyloid nucleation score: -1.54 ± 2.7

Substance: GRTHEEYF
- amyloid nucleation score: 0.048 ± 1.2

Substance: QYMKLGFNPCKTMVVLFLCC
- amyloid nucleation score: 4.16 ± 0.062

Substance: SDFVWRCFAMSIRLKRLYRS
- amyloid nucleation score: -0.68 ± 1.7

Substance: CNDHNNEYVNVSHTRRARL
- amyloid nucleation score: 0.99 ± 0.24

Substance: SCMESSVTL
- amyloid nucleation score: 0.656 ± 0.35

Substance: SVKGLYLIDVLLSYGLTFGM
- amyloid nucleation score: -0.608 ± 0.53

Substance: RDLAPVLRYVPNESKAGVGV
- amyloid nucleation score: -0.626 ± 0.53

Substance: WYVMRLKLVCI
- amyloid nucleation score: 0.156 ± 0.87

Substance: VVGRGKLQCVLFRHDTAYRV
- amyloid nucleation score: -0.058 ± 0.28

Substance: FLNLAFAVSRLGLCMWYVAF
- amyloid nucleation score: 0.319 ± 0.87

Substance: SRLTFVVVWDSSVVHIRMTG
- amyloid nucleation score: 3.46 ± 0.12

Substance: TEQYCS
- amyloid nucleation score: 0.404 ± 1

Substance: YDFVIFLGHDACEIYCFLRS
- amyloid nucleation score: 0.935 ± 0.56

Substance: LGPLYQFDICGKGTGYGDHE
- amyloid nucleation score: -0.673 ± 0.71

Substance: FCPPYLSHNNYYWLLVRVFV
- amyloid nucleation score: 0.322 ± 0.37

Substance: LYVEMEYSFDYYATKDRHQT
- amyloid nucleation score: -0.842 ± 1.7

Substance: SGAYLNKGFSVLAFYIIIVK
- amyloid nucleation score: 1.81 ± 0.26

Substance: GFSSVPEGDSINPR
- amyloid nucleation score: -0.09 ± 0.54

Substance: HPPNFVNVSW
- amyloid nucleation score: -0.023 ± 0.51

Substance: NVTSAR
- amyloid nucleation score: 0.185 ± 1.1

Substance: MVVVLLVD
- amyloid nucleation score: -0.438 ± 0.9

Substance: LHCFMWFFHIDN
- amyloid nucleation score: 7.456 ± 0.057

Substance: LIFQVSQSIGTYSCTKSEGR
- amyloid nucleation score: 0.756 ± 0.2

Substance: TARFLTKFAPGQSMNAYRCG
- amyloid nucleation score: -0.033 ± 0.6

Substance: VMTFLISLSWYSL
- amyloid nucleation score: 0.328 ± 0.23

Substance: GSNKRHSYTLVLSRNVYPSG
- amyloid nucleation score: 0.014 ± 0.49

Substance: YKSLMFWLVLVSVFMIRRNI
- amyloid nucleation score: 2.62 ± 0.26

Substance: ILPEPGMLFDIILNLHAKKF
- amyloid nucleation score: 2.65 ± 0.11

Substance: EFIGFRLFIQVNSDFM
- amyloid nucleation score: 1.69 ± 0.23

Substance: SDMSPNTGFG
- amyloid nucleation score: 0.073 ± 0.8

Substance: FNWLTTEFRW
- amyloid nucleation score: -0.037 ± 0.36

Substance: CMVMLGSEQKFYMVVRPLKI
- amyloid nucleation score: -0.085 ± 0.41

Substance: GICLKMYYVSACWESNVDTI
- amyloid nucleation score: 1.88 ± 0.18

Substance: AWGCMMAYFTGRLISEVSNS
- amyloid nucleation score: -0.529 ± 0.36

Substance: QAKPLMLNV
- amyloid nucleation score: -0.96 ± 1.9

Substance: QCSLRPVPRKDALSFLGLML
- amyloid nucleation score: -0.363 ± 0.35

Substance: VFKFKTM
- amyloid nucleation score: 1.24 ± 0.81

Substance: GRTVPDYLMVRSATNIRYGF
- amyloid nucleation score: -1.19 ± 1.7

Substance: FSCMRWM
- amyloid nucleation score: 0.73 ± 0.43

Substance: FTIVLELFRNFSRSKVYEDV
- amyloid nucleation score: -0.756 ± 2.4

Substance: SDSEGYLVEGWY
- amyloid nucleation score: 0.882 ± 0.87

Substance: KVHPYEMDENYNPSRCYSSS
- amyloid nucleation score: -0.049 ± 0.48

Substance: GRFGVGVWW
- amyloid nucleation score: 0.127 ± 0.46

Substance: GSMLCGEVERMSECKESGGP
- amyloid nucleation score: -0.354 ± 0.48

Substance: LFWLKKNILLDRIHLP
- amyloid nucleation score: -0.172 ± 0.4

Substance: KTCSQSEKM
- amyloid nucleation score: -0.562 ± 0.3

Substance: TRMRSSKSSVA
- amyloid nucleation score: 0.532 ± 0.42

Substance: FMDDSSLFPSI
- amyloid nucleation score: 0.569 ± 0.58

Substance: EYFLSQYRKFTGYFVVITAT
- amyloid nucleation score: 1.47 ± 0.76

Substance: VSKGLEHRPHVWG
- amyloid nucleation score: 5.35 ± 0.064

Substance: LLCLCESRVARYTWACHSWY
- amyloid nucleation score: -0.366 ± 0.3

Substance: NFMYTYTVTLRRGYGEVSCA
- amyloid nucleation score: -0.071 ± 0.6

Substance: CCFRRVTSRVPGRTMEGNCF
- amyloid nucleation score: -0.264 ± 1.2

Substance: KFFLRNGVAGTTVLLVQGLQ
- amyloid nucleation score: inactive

Substance: AIDRVSYHVKVVRGHINSKF
- amyloid nucleation score: inactive

Substance: RLRQTGVRLRSQEMFVGEVY
- amyloid nucleation score: -0.378 ± 0.45

Substance: IYVRGRMRVMGARH
- amyloid nucleation score: -1.26 ± 1.5

Substance: DMPTS
- amyloid nucleation score: 0.45 ± 0.75

Substance: IRNIRRI
- amyloid nucleation score: -0.262 ± 0.28

Substance: SCVAVRLLWQDMHPRANEPR
- amyloid nucleation score: 3.34 ± 0.13

Substance: YVLTCFAELGGRRGVS
- amyloid nucleation score: -0.531 ± 1.4

Substance: NQYMIQGKVSRSNIMCLGMR
- amyloid nucleation score: -0.067 ± 0.21

Substance: IVLDT
- amyloid nucleation score: 0.227 ± 0.29

Substance: VAGGDHAAHWKLAVKNPPPS
- amyloid nucleation score: 0.1 ± 0.56
